Laboratory results from paper PMC4364042 (Science (New York, N.Y.), 2014).
Each block holds one molecule with its values, some of them ahead of it.

Assays:
[1] = target: E-cadherin/β-catenin complex (Mus musculus) (UniProt P09803); details: cited from earlier work
Dr αE-catenin = target: T1, Dr αE-catenin (Danio rerio (zebrafish), UniProt Q9PVF8 1-907); assay: reconstitution of the complex on the coverslip, read by optical trap
T1 sequence (looked up): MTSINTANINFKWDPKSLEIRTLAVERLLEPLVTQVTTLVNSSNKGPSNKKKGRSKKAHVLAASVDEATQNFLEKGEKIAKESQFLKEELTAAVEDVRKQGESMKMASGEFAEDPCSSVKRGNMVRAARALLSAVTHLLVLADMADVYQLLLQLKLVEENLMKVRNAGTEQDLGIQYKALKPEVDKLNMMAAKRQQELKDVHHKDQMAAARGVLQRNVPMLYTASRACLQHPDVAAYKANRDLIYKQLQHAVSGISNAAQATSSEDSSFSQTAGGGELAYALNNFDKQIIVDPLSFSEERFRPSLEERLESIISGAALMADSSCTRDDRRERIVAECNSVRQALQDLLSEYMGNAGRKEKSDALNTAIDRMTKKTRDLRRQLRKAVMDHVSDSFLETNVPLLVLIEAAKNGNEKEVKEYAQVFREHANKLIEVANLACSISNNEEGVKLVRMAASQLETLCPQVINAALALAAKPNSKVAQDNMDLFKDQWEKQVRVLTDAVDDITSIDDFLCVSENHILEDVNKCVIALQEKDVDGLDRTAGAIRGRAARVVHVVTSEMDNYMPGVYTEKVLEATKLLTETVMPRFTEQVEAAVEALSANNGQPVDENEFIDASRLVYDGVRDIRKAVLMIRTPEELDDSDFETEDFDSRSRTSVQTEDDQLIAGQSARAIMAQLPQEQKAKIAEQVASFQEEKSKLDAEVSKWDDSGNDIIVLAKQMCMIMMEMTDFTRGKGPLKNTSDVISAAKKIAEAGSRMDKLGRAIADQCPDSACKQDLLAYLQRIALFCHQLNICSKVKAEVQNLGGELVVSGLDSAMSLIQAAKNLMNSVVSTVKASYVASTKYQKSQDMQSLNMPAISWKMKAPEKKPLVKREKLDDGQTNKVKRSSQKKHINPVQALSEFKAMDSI

E-cadherin/β-catenin complex (Mus musculus), sequence (P09803 157-884, chain 1 of 2): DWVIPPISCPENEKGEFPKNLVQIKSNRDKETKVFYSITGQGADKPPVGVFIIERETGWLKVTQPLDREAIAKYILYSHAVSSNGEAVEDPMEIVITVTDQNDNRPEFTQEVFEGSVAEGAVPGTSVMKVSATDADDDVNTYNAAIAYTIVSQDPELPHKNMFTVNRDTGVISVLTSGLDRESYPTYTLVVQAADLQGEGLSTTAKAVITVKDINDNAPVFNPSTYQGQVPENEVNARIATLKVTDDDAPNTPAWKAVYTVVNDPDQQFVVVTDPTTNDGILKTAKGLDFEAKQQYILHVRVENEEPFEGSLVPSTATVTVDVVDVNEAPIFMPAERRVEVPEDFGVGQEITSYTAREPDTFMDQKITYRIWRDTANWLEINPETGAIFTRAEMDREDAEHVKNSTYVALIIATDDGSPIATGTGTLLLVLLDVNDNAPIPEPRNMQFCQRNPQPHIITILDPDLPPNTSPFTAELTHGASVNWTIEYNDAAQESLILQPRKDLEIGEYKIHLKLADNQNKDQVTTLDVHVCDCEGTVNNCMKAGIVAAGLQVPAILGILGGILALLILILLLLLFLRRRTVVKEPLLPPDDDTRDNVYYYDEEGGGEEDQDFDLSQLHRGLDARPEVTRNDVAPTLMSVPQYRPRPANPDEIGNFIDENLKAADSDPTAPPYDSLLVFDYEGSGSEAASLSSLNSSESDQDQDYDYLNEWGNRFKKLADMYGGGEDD
E-cadherin/β-catenin complex (Mus musculus), sequence (Q02248 2-781, chain 2 of 2, further chain): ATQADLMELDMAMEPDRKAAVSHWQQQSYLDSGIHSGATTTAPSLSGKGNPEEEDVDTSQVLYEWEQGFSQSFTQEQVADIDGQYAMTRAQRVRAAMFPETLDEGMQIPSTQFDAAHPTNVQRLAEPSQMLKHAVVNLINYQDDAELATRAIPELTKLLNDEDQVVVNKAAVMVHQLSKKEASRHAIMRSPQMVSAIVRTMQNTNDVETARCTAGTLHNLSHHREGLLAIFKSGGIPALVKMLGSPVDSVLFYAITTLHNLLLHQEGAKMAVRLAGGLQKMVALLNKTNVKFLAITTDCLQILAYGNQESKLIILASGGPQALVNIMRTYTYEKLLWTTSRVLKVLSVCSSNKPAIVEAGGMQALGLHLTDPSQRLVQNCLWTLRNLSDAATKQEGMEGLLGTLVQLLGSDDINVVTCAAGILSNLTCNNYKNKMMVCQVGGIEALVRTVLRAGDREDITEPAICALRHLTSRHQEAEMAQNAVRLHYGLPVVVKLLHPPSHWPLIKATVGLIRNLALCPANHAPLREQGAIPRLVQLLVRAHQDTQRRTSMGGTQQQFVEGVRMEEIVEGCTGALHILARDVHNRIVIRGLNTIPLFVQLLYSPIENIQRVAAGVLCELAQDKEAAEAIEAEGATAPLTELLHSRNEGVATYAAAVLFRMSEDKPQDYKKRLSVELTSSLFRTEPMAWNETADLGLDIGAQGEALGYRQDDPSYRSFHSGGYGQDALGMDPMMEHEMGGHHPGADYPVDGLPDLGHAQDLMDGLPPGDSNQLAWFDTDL

Molecule: αE-catenin (from UniProt P26231)
- Kd [1]: 1 nM

- binding result (Dr αE-catenin): binds
B1: Dr β-catenin (natural protein, Danio rerio (zebrafish), UniProt F1QGH7 1-780, looked up)
chain: MATQSDLMELEMAMDPDRKAAVSHWQQQSYLDSGIHSGATTTAPSLSGKGNPEDDDVDNQVLYEWEQGFNQSFNQEQVADIDGQYAMTRAQRVRAAMFPETLDEGMQIPSTQFDSAHPTNVQRLAEPSQMLKHAVVNLINYQDDAELATRAIPELTKLLNDEDQVVVNKAAVMVHQLSKKEASRHAIMRSPQMVSAIVRTMQNTNDVETARCTSGTLHNLSHHREGLLAIFKSGGIPALVKMLGSPVDSVLFYAITTLHNLLLHQEGAKMAVRLAGGLQKMVALLNKTNVKFLAITTDCLQILAYGNQESKLIILASGGPQALVNIMRTYTYEKLLWTTSRVLKVLSVCSSNKPAIVEAGGMQALGLHLTDPSQRLVQNCLWTLRNLSDAATKQEGMEGLLGTLVQLLGSDDINVVTCAAGILSNLTCNNYKNKMMVCQVGGIEALVRTVLRAGDREDITEPAICALRHLTSRHQDAEMAQNAVRLHYGLPVVVKLLHPPSHWPLIKATVGLIRNLALCPANHAPLREQGAIPRLVQLLVRAHQDTQRRTSMGGTQQQFVEGVRMEEIVEGCTGALHILARDIHNRIVIRGLNTIPLFVQLLYSPIENIQRVAAGVLCELAQDKEAAEAIEAEGATAPLTELLHSRNEGVATYAAAVLFRMSEDKPQDYKKRLSVELTSSLFRTEPMTWNETGDLGLDIGAQGEPLGYRQDDPSYRSFHSGGYGQDAMGMDPMMEHEMAGHHPGPDYPVDGLPDLGHTQDLIDGLPPGDSNQLAWFDTDL
